In article PMC3469418, “New Partners in Regulation of Gene Expression: The Enhancer of Trithorax and Polycomb Corto Interacts with Methylated Ribosomal Protein L12 Via Its Chromodomain” (PLoS Genetics, 2012) one finds Kd data, which are given here for six substances.

pKd: −log10 of the molar value. Like-named read-outs stand apart in the source and are kept apart here.

What all share (assay): SPR; Biacore 3000; GST, GST-CortoCD or GST-HP1CD covalently coupled to a CM5 chip; peptides injected at 1 or 10 µM (binding test) or in series from 1 to 10 µM (kinetics), 5 µL/min, 5 min; 10 mM Hepes pH7.4, 150 mM NaCl, 3 mM EDTA, 0.005% P20; 1:1 Langmuir fit
For orientation: SPR reads the build-up and loss of mass on a sensor chip optically.

Assay [1] addresses GST-CortoCD (Corto chromodomain fused to GST) (D. melanogaster).
Assay [2] addresses GST-HP1CD (HP1 chromodomain fused to GST).
Assay [3] addresses GST-CortoCD (Corto chromodomain fused to GST) (D. melanogaster). This is another data set of the same source.

The pKd is the Kd on a negative log10 scale, so that one unit is a factor of ten. With RPL12 peptide dimethylated on lysine 3, the pKd in assay [1] is below 3.70. Turning to RPL12 peptide trimethylated on lysine 3, the negative logarithm of the Kd (pKd) in assay [1] is 5.10; in assay [2], below 3.70; in assay [3], above 4.00.

On to “RPL12 peptide trimethylated on lysine 10”, for which the pKd in assay [1] and in assay [2] was below 3.70 each time. For RPL12 unmodified peptide, the pKd in assay [1] and in assay [2] was below 3.70 in each case. For “histone H3 peptide trimethylated on lysine 9”, the pKd in assay [2] was 6.40. Same read-out and setting: next, “histone H3 peptide trimethylated on lysine 27”: 6.15.
